Experimental data taken from US20170327577A1, “METHODS OF CONSTRUCTING AMINO TERMINAL IMMUNOGLOBULIN FUSION PROTEINS AND COMPOSITIONS THEREOF” (The California Institute for Biomedical Research, priority 2014, published 2017).
Values belong to the substance of their own block, whether it stands above or below them.

Key:
leptin receptor = leptin receptor (UniProt P48357); test: cell-based or functional assay
relaxin receptor (LGR7) = molecular target: T1, relaxin receptor (LGR7) (UniProt Q9HBX9); test: cell-based or functional assay
T1 sequence (looked up): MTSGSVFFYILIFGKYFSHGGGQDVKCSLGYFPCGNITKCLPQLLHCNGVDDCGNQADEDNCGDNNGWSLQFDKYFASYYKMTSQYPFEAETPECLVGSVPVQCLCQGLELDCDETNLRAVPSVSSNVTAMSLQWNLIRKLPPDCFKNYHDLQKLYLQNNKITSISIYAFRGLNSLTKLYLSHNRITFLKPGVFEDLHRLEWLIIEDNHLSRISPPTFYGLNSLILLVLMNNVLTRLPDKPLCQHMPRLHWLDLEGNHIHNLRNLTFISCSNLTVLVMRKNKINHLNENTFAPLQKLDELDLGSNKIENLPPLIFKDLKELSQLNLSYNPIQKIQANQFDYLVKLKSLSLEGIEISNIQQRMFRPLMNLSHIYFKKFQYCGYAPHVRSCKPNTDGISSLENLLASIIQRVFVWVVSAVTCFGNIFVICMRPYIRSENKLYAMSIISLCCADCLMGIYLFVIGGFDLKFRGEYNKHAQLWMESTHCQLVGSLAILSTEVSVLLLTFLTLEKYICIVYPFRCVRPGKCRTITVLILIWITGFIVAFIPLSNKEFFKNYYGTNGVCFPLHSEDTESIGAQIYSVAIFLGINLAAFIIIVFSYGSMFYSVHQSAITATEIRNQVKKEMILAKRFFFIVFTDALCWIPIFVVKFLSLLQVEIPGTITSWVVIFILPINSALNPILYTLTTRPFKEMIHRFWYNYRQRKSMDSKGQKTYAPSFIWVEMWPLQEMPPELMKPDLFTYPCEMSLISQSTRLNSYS

GLP-2 receptor (GLP-2R) = molecular target: T2, GLP-2 receptor (GLP-2R) (Homo sapiens, UniProt O95838); test: GLP-2 receptor activation, CRE-luciferase reporter assay in HEK293 cells; type: cell-based; details: Example 18; HEK293 GLP-2R CRE-Luc, 24 hours
T2 sequence (O95838 1-553): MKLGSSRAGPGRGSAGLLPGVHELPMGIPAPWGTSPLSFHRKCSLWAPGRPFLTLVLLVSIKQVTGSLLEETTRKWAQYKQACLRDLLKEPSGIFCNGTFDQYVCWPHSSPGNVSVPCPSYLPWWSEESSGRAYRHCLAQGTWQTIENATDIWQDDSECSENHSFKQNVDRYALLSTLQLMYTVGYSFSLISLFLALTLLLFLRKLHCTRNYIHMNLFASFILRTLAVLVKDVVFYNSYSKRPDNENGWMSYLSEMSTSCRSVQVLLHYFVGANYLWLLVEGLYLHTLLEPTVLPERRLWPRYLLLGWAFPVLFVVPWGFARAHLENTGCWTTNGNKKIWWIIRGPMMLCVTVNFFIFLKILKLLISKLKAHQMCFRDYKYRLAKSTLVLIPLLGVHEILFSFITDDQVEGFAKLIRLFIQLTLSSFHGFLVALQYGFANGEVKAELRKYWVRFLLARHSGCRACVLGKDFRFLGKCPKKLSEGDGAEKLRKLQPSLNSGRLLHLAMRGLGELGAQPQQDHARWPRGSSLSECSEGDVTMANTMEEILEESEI

GLP-2 receptor = GLP-2 receptor (UniProt O95838); test: cell-based or functional assay
relaxin receptor (LGR8) = relaxin receptor (LGR8) (Homo sapiens, UniProt Q8WXD0); test: cell-based or functional assay
Sequence of relaxin receptor (LGR8) (Q8WXD0 whole entry): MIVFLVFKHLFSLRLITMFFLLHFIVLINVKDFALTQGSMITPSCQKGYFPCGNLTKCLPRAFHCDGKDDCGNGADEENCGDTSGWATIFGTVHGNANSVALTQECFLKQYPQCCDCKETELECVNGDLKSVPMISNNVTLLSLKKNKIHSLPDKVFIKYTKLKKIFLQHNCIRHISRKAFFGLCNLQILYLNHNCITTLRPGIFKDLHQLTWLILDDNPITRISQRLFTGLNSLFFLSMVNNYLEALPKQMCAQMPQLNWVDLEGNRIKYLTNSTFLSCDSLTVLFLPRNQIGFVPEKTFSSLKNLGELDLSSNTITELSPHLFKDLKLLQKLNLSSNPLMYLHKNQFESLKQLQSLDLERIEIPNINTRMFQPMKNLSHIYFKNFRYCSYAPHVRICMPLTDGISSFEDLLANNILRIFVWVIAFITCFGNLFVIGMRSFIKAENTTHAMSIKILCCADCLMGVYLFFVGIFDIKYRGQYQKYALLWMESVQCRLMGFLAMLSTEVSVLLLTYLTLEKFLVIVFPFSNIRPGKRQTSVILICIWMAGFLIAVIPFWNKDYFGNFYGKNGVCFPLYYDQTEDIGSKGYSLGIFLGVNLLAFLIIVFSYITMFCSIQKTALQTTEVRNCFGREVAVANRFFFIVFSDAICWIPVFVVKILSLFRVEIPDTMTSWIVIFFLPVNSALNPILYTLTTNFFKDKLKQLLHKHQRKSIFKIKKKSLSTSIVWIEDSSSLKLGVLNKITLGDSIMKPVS

GLP-1 receptor = GLP-1 receptor (UniProt P43220); test: cell-based or functional assay
glucagon receptor = glucagon receptor (UniProt P47871); test: cell-based or functional assay

Sequence of palivizumab(NH, CEXGGGGS)-relaxin2(single) and palivizumab light chain (heavy): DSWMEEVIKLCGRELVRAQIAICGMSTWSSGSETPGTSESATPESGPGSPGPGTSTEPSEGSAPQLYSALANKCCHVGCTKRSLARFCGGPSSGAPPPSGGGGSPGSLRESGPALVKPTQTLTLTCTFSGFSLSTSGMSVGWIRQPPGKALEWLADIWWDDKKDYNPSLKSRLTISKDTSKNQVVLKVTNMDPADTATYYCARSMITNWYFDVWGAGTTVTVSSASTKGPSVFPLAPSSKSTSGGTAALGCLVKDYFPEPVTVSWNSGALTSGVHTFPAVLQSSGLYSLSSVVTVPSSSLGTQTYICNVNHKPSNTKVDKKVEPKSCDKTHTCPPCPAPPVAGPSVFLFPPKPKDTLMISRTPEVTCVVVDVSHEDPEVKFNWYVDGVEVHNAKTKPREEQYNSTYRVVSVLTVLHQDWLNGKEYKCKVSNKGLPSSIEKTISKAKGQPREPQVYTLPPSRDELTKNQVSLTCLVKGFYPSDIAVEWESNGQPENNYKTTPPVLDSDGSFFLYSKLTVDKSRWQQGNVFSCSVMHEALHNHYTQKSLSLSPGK
Sequence of palivizumab(NH, CEXGGGGS)-relaxin2(single) and palivizumab light chain (light): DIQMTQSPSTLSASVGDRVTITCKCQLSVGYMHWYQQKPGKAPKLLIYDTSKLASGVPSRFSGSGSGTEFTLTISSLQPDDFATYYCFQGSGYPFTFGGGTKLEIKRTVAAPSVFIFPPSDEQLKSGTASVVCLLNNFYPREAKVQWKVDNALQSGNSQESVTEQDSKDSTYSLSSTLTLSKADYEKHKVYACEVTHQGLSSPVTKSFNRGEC
Sequence of palivizumab fab(NH, CEXGGGGS)-relaxin2(single) and palivizumab light chain (heavy): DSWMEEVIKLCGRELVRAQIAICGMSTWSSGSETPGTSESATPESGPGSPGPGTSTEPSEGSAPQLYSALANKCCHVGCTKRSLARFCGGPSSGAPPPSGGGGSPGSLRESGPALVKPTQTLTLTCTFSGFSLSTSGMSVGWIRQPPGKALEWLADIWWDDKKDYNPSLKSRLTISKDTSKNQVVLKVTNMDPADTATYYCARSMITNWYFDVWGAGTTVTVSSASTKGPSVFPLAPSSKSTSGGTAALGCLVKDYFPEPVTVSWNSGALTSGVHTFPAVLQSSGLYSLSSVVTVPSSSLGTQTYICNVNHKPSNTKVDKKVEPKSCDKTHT
Sequence of palivizumab fab(NH, CEXGGGGS)-relaxin2(single) and palivizumab light chain (light): as the sequence (light) above
Sequence of palivizumab (NH, GGGGS3)-relaxin2(9GS) and palivizumab light chain (heavy): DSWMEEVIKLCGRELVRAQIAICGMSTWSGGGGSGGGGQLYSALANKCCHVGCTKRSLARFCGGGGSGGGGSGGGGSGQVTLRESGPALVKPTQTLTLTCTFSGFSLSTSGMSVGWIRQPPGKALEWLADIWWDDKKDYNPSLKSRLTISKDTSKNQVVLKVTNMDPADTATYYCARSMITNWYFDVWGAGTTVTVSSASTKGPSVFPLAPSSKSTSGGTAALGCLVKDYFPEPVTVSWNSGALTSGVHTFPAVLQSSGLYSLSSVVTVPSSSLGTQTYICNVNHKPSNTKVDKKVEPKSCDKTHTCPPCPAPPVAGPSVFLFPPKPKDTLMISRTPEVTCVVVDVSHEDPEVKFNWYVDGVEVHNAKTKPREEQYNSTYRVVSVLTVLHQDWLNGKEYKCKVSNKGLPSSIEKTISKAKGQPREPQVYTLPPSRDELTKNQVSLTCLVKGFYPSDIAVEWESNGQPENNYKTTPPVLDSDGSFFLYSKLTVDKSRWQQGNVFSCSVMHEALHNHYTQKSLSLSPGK
Sequence of palivizumab (NH, GGGGS3)-relaxin2(9GS) and palivizumab light chain (light): as the sequence (light) above
Sequence of palivizumab(NH, CEXGGGGS)-GLP2 and palivizumab(L) (heavy): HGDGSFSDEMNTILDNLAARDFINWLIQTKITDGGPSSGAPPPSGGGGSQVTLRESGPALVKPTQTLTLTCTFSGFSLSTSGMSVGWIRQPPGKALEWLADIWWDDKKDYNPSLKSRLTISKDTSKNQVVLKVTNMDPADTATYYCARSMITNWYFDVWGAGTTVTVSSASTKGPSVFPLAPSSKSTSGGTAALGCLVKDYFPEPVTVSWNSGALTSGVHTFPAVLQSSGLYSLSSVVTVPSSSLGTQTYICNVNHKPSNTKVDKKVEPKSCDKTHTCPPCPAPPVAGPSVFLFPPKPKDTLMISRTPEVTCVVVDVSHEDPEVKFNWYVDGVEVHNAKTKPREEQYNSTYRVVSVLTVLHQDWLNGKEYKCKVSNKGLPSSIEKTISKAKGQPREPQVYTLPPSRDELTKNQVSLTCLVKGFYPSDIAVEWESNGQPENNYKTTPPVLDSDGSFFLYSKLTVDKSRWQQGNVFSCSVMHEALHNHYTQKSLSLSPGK
Sequence of palivizumab(NH, CEXGGGGS)-GLP2 and palivizumab(L) (light): as the sequence (light) above
Sequence of palivizumab(NH, CEXGGGGG)-relaxin2(30GS) and palivizumab light chain (heavy): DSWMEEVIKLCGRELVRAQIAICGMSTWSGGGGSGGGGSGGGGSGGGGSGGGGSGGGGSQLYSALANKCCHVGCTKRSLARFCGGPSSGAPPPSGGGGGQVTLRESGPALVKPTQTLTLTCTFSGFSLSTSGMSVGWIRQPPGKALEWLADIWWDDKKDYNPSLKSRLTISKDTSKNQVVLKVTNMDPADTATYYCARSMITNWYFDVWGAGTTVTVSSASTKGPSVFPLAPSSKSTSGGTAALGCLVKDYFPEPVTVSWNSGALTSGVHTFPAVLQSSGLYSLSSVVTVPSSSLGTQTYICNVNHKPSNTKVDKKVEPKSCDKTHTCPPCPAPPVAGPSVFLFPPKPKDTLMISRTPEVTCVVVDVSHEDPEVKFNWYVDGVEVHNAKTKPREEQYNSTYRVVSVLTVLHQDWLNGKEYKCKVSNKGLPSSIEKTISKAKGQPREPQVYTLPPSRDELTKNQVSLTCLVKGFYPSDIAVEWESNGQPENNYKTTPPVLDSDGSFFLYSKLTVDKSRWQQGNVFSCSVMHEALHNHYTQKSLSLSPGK
Sequence of palivizumab(NH, CEXGGGGG)-relaxin2(30GS) and palivizumab light chain (light): as the sequence (light) above
Sequence of palivizumab fab(NH, GGGGS3)-relaxin2(9GS) and palivizumab light chain (heavy): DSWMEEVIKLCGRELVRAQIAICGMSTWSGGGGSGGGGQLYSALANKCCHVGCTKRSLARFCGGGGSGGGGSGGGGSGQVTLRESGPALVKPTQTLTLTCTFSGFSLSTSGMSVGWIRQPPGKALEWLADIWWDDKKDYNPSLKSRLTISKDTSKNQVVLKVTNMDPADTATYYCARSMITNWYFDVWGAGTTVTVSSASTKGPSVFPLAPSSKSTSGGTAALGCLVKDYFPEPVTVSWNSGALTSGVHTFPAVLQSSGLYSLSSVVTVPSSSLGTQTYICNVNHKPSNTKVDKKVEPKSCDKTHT
Sequence of palivizumab fab(NH, GGGGS3)-relaxin2(9GS) and palivizumab light chain (light): as the sequence (light) above

Substance: palivizumab (NH, CEXGGGGG)-relaxin2(9GS) and palivizumab light chain
EC50, CRE-luciferase reporter in HEK293 cells (relaxin receptor (LGR7)): 480 pM

Substance: palivizumab fab(NH, CEXGGGGS)-relaxin2(single) and palivizumab light chain
EC50, CRE-luciferase reporter in HEK293 cells (relaxin receptor (LGR7)): 47300 pM

Substance: palivizumab(NH, CEXGGGGG)-relaxin2(30GS) and palivizumab light chain
EC50, CRE-luciferase reporter in HEK293 cells (relaxin receptor (LGR7)): 208 pM

Substance: palivizumab(NH, CEXGGGGG)-relaxin2(GGGPRR) and palivizumab light chain
EC50, CRE-luciferase reporter in HEK293 cells (relaxin receptor (LGR7)): 2000 pM

Substance: palivizumab(NH, CEXGGGGS)-GLP2 (SEQ ID NO: 218) and palivizumab(L) (SEQ ID NO: 7)
EC50 (GLP-2 receptor (GLP-2R)): 0.133 nM

Substance: palivizumab(NH, CEXGGGGS)-GLP2 and palivizumab(L)
EC50, CRE-luciferase reporter in HEK293 cells (GLP-2 receptor): 133 pM

Substance: palivizumab(NH, CEXGGGGS)-relaxin2(single) and palivizumab light chain
EC50, CRE-luciferase reporter in HEK293 cells (relaxin receptor (LGR7)): 2500 pM | EC50, CRE-luciferase reporter in HEK293 cells (FIG. 13) (relaxin receptor (LGR7)): 2.5 nM | EC50, CRE-luciferase reporter in HEK293 cells (FIG. 13) (relaxin receptor (LGR8)): 553 nM

Substance: palivizumab(NL, EAAAK)-glucagon(2G) and pPalivizumab(NH, GGGGS1)-exendin-4
EC50, CRE-luciferase reporter in HEK293 cells (GLP-1 receptor): 9 pM | EC50, CRE-luciferase reporter in HEK293 cells (glucagon receptor): 26 pM

Now from value to substance:

EC50, luciferase reporter (FIG. 6) (leptin receptor): 55 pM
Substance: leptin (from UniProt P41159 22-167) (ligand)

EC50, CRE-luciferase reporter in HEK293 cells (relaxin receptor (LGR7)): 240 pM
Substance: palivizumab (NH, GGGGS3)-relaxin2(9GS) and palivizumab light chain

EC50, CRE-luciferase reporter in HEK293 cells (relaxin receptor (LGR7)): 1300 pM
Substance: palivizumab (NH, GGGGS3)-relaxin(18GS) and palivizumab light chain

EC50, CRE-luciferase reporter in HEK293 cells (relaxin receptor (LGR7)): 5800 pM
Substance: palivizumab fab(NH, GGGGS3)-relaxin2(9GS) and palivizumab light chain

EC50, CRE-luciferase reporter in HEK293 cells (GLP-2 receptor): 69 pM
Substance: palivizumab(NH, EAAAK)-GLP2 and palivizumab(L)

EC50, CRE-luciferase reporter in HEK293 cells (relaxin receptor (LGR7)): 3400 pM
Substance: palivizumab(NH, EAAAK)-relaxin2(GGGPRR) and palivizumab light chain

EC50, CRE-luciferase reporter in HEK293 cells (relaxin receptor (LGR7)): 12.1 pM | EC50, CRE-luciferase reporter in HEK293 cells (FIG. 13) (relaxin receptor (LGR7)): 0.012 nM | EC50, CRE-luciferase reporter in HEK293 cells (FIG. 23) (relaxin receptor (LGR7)): 0.014 nM | EC50, CRE-luciferase reporter in HEK293 cells (FIG. 13) (relaxin receptor (LGR8)): 11.2 nM | EC50, CRE-luciferase reporter in HEK293 cells (FIG. 23) (relaxin receptor (LGR8)): 11.2 nM
Substance: relaxin-2 (from UniProt P04090 25-185) (ligand)

EC50, luciferase reporter (FIG. 6) (leptin receptor): 44.8 pM
Substance: trastuzumab(CDR3H) Leptin
